Like-named read-outs stand apart in the source and are kept apart here.
Experiments:
[1] = molecular target: T1, wild-type human TIM-3 (hu TIM-3) (human, UniProt Q8TDQ0 22-200, limits assumed); assay: SPR (Biacore 4000), antibody captured via anti-human Fc
T1 construct: Soluble protein used for SPR; also called wild-type TIM-3

[2] = molecular target: T1, wild-type human TIM-3 (hu TIM-3); assay: as above; remark: listed apart in the source
[3] = molecular target: T2, rhTIM-3-Fc AF647 (human, UniProt Q8TDQ0 22-200, AF647 label); assay: flow cytometry; M6903 pre-incubated with rhTIM-3-Fc AF647, inhibition of its binding to PtdSer on apoptotic Jurkat cells
T2 construct: also called rhTIM-3 AF647; not shown: Fc part

[4] = molecular target: T3, T Cell Immunoglobulin and Mucin Domain-3 (TIM-3) on human blood cells (human, UniProt Q8TDQ0 22-301); assay: flow cytometry, target occupancy on CD14+ monocytes in human whole blood; unoccupied TIM-3 detected with the competing anti-TIM-3(2E2)-APC; average of 10 donors
T3 construct: whole, on cells; also called TIM-3 on CD14+ monocytes; HAVCR2

[5] = molecular target: T3, T Cell Immunoglobulin and Mucin …; assay: Flow cytometry on human whole blood, target occupancy on CD14+ monocytes, donor KP46231. Unoccupied TIM-3 was detected with the competing anti-TIM-3 (2E2)-APC.
[6] = molecular target: T3, T Cell Immunoglobulin and Mucin …; assay: Flow cytometry on human whole blood, target occupancy on CD14+ monocytes, donor KP46315. Unoccupied TIM-3 was detected with the competing anti-TIM-3 (2E2)-APC.
[7] = molecular target: T3, T Cell Immunoglobulin and Mucin …; assay: Flow cytometry on human whole blood, target occupancy on CD14+ monocytes, donor KP46318 (assigned by elimination of the other line styles). Unoccupied TIM-3 was detected with the competing anti-TIM-3 (2E2)-APC.

B1: M6903 (anti-TIM3-3903E11(VL1.3,VH1.2)-IgG2h(FN-AQ,322A)-delK) (antibody, V domains shown)
VH: not shown
VL: QSALTQPRSVSGSPGQSVTISCTGTSSDVGGYNYVSWYQQHPGKAPKLMIYDVSKRPSGVPDRFSGSKSGNTASLTISGLQAEDEADYYCSSYADSVVFGGGTKVTVLG
notes: Anti-TIM-3 (A16-019-1), used in the target occupancy assay, is said to be identical to M6903 but produced in Expi293F instead of CHOK1SV cells; it is kept under this molecule; also called 3903E11 (VL1.3,VH1.2)-IgG2h(FN-AQ,322A)-delK antibody; anti-TIM-3 (A16-019-1)
Kd [1]: 6.2 nM
Kd [2]: 5.7 nM
IC50 [3]: 4.44 nM
EC50 [4]: 0.111 µg/mL
EC50 (read off the curve) [5]: ~0.07 µg/mL
EC50 (read off the curve) [6]: ~0.07 µg/mL
EC50 (read off the curve) [7]: ~0.07 µg/mL

Source: patent US20220073616A1 (Merck KGaA, published 2022)
